Experimental data as given in the supplement of paper PMC7877785.
± gives the uncertainty stated by the source.

Experiment: self-splicing fitness, log relative to wild type (ln ratio); higher = more splicing; Tetrahymena group I intron in knt gene, E. coli kanamycin selection, DiMSum; sequences stand for … in CUCUCU…GGAGGGAAAAGUUAUCAGGCAUGCACCUGGUAGCUAGUCUUUAAACCAAUAGAUUGCAUCGGUUUAAAAGGCAAGACCGUCAAAUUGCGGGAAAGGGGUCAACAGCCGUUCAGUACCAAGUCUCAGGGGAAACUUUGAGAUGGCCUUGCAAAGGGUAUGGUAAUAAGCUGACGGACAUGGUCCUAACCACGCAGCCAAGUCCUAAGUCAACAGAUCUUCUGUUGAUAUGGAUGCAGUUCACAGACUAAAUGUCGGUCGGGGAAGAUGUAUUCUUCUCAUAAGAUAUAGUCGGACCUCUCCUUAAUGGGAGCUAGCGGAUGAAGUGAUGCAACACUGGAGCCGCUGGGAACUAAUUUGUAUGCGAAAGUAUAUUGAUUAGUUUUGGAGUACUCGUGGUCG
How it was run: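 Library with all eight P1ex-region intron nucleotides randomised, intron inside the knt kanamycin-resistance gene on pET-22b(+), in E. coli BL21(DE3). Cells grew overnight at 37°C or 30°C on LB agar with or without 25 μg/mL kanamycin (plus 100 μg/mL carbenicillin, 50 μM IPTG, 0.2% rhamnose), in six replicate transformations. Pooled colonies were amplicon-sequenced on Illumina HiSeq 2500. DiMSum fitness is the error-weighted combination of wild-type-normalised replicate fold changes, kanamycin versus none.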

| Sequence | self-splicing fitness (ln) (30 °C) | self-splicing fitness (ln) (37 °C) |
| --- | --- | --- |
| CUUUAGCAAUAUUACGUCUC | -2.64 ± 0.24 | -3.21 ± 0.3 |
| CUUUAGCAAUAUUACGUGCA | -2.93 ± 0.23 | -2.75 ± 0.25 |
| CUUUAGCAAUAUUACGUGGU | -2.28 ± 0.25 | -2.8 ± 0.26 |
| GAAAAGCAAUAUUACGAAUG | -1.89 ± 0.07 | -1.19 ± 0.08 |
| GAAAAGCAAUAUUACGACCA | -0.386 ± 0.13 | 0.235 ± 0.19 |
| GAAAAGCAAUAUUACGAGCA | -0.889 ± 0.063 | -0.307 ± 0.076 |
| GAAAAGCAAUAUUACGAUCG | -0.618 ± 0.06 | 0.218 ± 0.08 |
| GAAAAGCAAUAUUACGAUGA | -0.7 ± 0.1 | -0.295 ± 0.11 |
| GAAAAGCAAUAUUACGAUGG | -2.73 ± 0.13 | -0.913 ± 0.12 |
| GAAAAGCAAUAUUACGCACC | -0.811 ± 0.28 | -0.377 ± 0.31 |
| GAAAAGCAAUAUUACGCAGA | -2.53 ± 0.18 | -2.2 ± 0.13 |
| GAAAAGCAAUAUUACGCAGU | -3.38 ± 0.18 | -1.69 ± 0.15 |
| GAAAAGCAAUAUUACGCGGG | -3.37 ± 0.2 | -2.21 ± 0.18 |
| GAAAAGCAAUAUUACGCUGG | -2.57 ± 0.2 | -1.24 ± 0.25 |
| GAAAAGCAAUAUUACGCUGU | -2.75 ± 0.15 | -0.534 ± 0.12 |
| GAAAAGCAAUAUUACGGAGC | -2.46 ± 0.16 | -0.743 ± 0.12 |
| GAAAAGCAAUAUUACGGCGA | -0.334 ± 0.07 | -0.204 ± 0.074 |
| GAAAAGCAAUAUUACGGCGU | -0.208 ± 0.095 | 0.24 ± 0.11 |
| GAAAAGCAAUAUUACGGUAA | -1.98 ± 0.12 | -1.18 ± 0.12 |
| GAAAAGCAAUAUUACGGUGG | -3.78 ± 0.2 | -1.66 ± 0.15 |
| GAAAAGCAAUAUUACGUACA | -0.498 ± 0.066 | -0.0587 ± 0.082 |
| GAAAAGCAAUAUUACGUAUA | -0.936 ± 0.098 | -0.833 ± 0.12 |
| GAAAAGCAAUAUUACGUCGG | -4.39 ± 0.32 | -2.89 ± 0.24 |
| GAAAAGCAAUAUUACGUGAA | -1.56 ± 0.065 | -1.33 ± 0.085 |
| GAAAAGCAAUAUUACGUGGC | -3.57 ± 0.2 | -2.06 ± 0.16 |
| GAAAAGCAAUAUUACGUGGU | -3.58 ± 0.17 | -2.79 ± 0.2 |

| Sequence | self-splicing fitness (ln) (30 °C) | self-splicing fitness (ln) (37 °C) |
| --- | --- | --- |
| GAAAAGCAAUAUUACGUGUU | -2.35 ± 0.083 | -1.18 ± 0.088 |
| GAAAAGCAAUAUUACGUUCA | -0.878 ± 0.086 | -0.773 ± 0.082 |
| GAAAAGCAAUAUUACGUUGC | -3.83 ± 0.15 | -2.67 ± 0.14 |
| GAACAGCAAUAUUACGAACG | -1.21 ± 0.1 | -0.566 ± 0.14 |
| GAACAGCAAUAUUACGAGCU | -1.99 ± 0.091 | -1.18 ± 0.09 |
| GAACAGCAAUAUUACGCAGA | -2.1 ± 0.14 | -1.66 ± 0.12 |
| GAACAGCAAUAUUACGCUAU | -2.43 ± 0.1 | -1.21 ± 0.11 |
| GAACAGCAAUAUUACGCUGC |  | -1.69 ± 0.26 |
| GAACAGCAAUAUUACGGGAA | -2.38 ± 0.2 | 0.0433 ± 0.14 |
| GAACAGCAAUAUUACGUAAG | -1.06 ± 0.083 | -0.059 ± 0.093 |
| GAACAGCAAUAUUACGUAAU | -0.976 ± 0.065 | -0.107 ± 0.09 |
| GAACAGCAAUAUUACGUCGC | -1.61 ± 0.11 | -0.68 ± 0.12 |
| GAACAGCAAUAUUACGUGAU | -0.746 ± 0.058 | -0.432 ± 0.075 |
| GAACAGCAAUAUUACGUGCA | -1.09 ± 0.065 | 0.0769 ± 0.089 |
| GAACAGCAAUAUUACGUGCG | -0.551 ± 0.065 | -0.41 ± 0.074 |
| GAACAGCAAUAUUACGUGGA | -2.32 ± 0.1 | -1.95 ± 0.094 |
| GAACAGCAAUAUUACGUGGG | -3.42 ± 0.11 | -1.9 ± 0.091 |
| GAACAGCAAUAUUACGUGUU | -3.97 ± 0.17 | -2.61 ± 0.16 |
| GAAGAGCAAUAUUACGAACU | -1.43 ± 0.15 | -0.479 ± 0.17 |
| GAAGAGCAAUAUUACGAAGA | -2.62 ± 0.26 | -2.48 ± 0.24 |
| GAAGAGCAAUAUUACGACGU | -0.922 ± 0.16 | -0.536 ± 0.18 |
| GAAGAGCAAUAUUACGAGCA |  | -1.33 ± 0.33 |
| GAAGAGCAAUAUUACGAUCA | -2.36 ± 0.21 | -1.01 ± 0.19 |
| GAAGAGCAAUAUUACGCAUA | -3.1 ± 0.19 | -2.62 ± 0.22 |
| GAAGAGCAAUAUUACGCCUU | -2.52 ± 0.37 | -1.55 ± 0.33 |
| GAAGAGCAAUAUUACGCGCC | -3.56 ± 0.47 | -1.43 ± 0.26 |

| Sequence | self-splicing fitness (ln) (30 °C) | self-splicing fitness (ln) (37 °C) |
| --- | --- | --- |
| GAAGAGCAAUAUUACGGAAA | -2.81 ± 0.14 | -2.93 ± 0.22 |
| GAAGAGCAAUAUUACGGCUG | -2.1 ± 0.16 | -1.22 ± 0.18 |
| GAAGAGCAAUAUUACGGGCU | -3.17 ± 0.17 | -3.07 ± 0.28 |
| GAAGAGCAAUAUUACGGGUG | -3.28 ± 0.15 | -2.01 ± 0.17 |
| GAAGAGCAAUAUUACGGUAU | -3.7 ± 0.23 | -2.46 ± 0.31 |
| GAAGAGCAAUAUUACGGUCU | -2.52 ± 0.26 | -0.469 ± 0.24 |
| GAAGAGCAAUAUUACGUAUU | -3.86 ± 0.28 | -1.04 ± 0.13 |
| GAAGAGCAAUAUUACGUCCG | -3.48 ± 0.39 |  |
| GAAGAGCAAUAUUACGUCUG | -2.34 ± 0.14 | -1.76 ± 0.16 |
| GAAUAGCAAUAUUACGACUC | -0.601 ± 0.13 | -1.34 ± 0.18 |
| GAAUAGCAAUAUUACGACUG | 0.089 ± 0.15 | -1.43 ± 0.17 |
| GAAUAGCAAUAUUACGACUU | 0.269 ± 0.073 | 0.548 ± 0.092 |
| GAAUAGCAAUAUUACGAUUA | -0.73 ± 0.093 | 0.156 ± 0.11 |
| GAAUAGCAAUAUUACGCAGU | -2.57 ± 0.15 | -0.857 ± 0.12 |
| GAAUAGCAAUAUUACGCCCU | -0.167 ± 0.19 | 0.00214 ± 0.21 |
| GAAUAGCAAUAUUACGCCUG | -0.487 ± 0.14 | -0.504 ± 0.16 |
| GAAUAGCAAUAUUACGCGGC | -1.42 ± 0.19 | -2.38 ± 0.3 |
| GAAUAGCAAUAUUACGCGGG |  | -0.0263 ± 0.25 |
| GAAUAGCAAUAUUACGCUUG | -0.781 ± 0.11 | -0.818 ± 0.14 |
| GAAUAGCAAUAUUACGGCGG | -2.65 ± 0.18 | -0.799 ± 0.13 |
| GAAUAGCAAUAUUACGGUUG | -1.27 ± 0.092 | -0.561 ± 0.13 |
| GAAUAGCAAUAUUACGUAAG | -2.32 ± 0.14 | -0.886 ± 0.18 |
| GAAUAGCAAUAUUACGUACA | -1.7 ± 0.14 | -0.774 ± 0.2 |
| GAAUAGCAAUAUUACGUCCG | -1.39 ± 0.15 | -1.33 ± 0.22 |
